Assay results published in US20090053213A1 (MorphoSys, published 2009).
Changes are numbered by the printed parent chain.

B1: MOR03682 Fab (Fab, V domains shown)
VH: QVQLVQSGAEVKKPGSSVKVSCKASGGTFNSFLISWVRQAPGQGLEWMGGIIPIFGTANYAQKFQGRVTITADESTSTAYMELSSLRSEDTAVYYCARKFISDSWGQGTLVTVSS
VL: DIQMTQSPSSLSASVGDRVTITCRASQTINNYLNWYQQKPGKAPKLLIYTASNLQSGVPSRFSGSGSGTDFTLTISSLQPEDFAVYYCQQYSGSPMTFGQGTKVEIKR
notes: Parental HuCAL GOLD Fab with C-terminal FLAG and 6xHis tags
B2: MOR04283 Fab (Fab, V domains shown)
VH: B1 VH with G50A, I52S, I54W, F55D, T57V, A58T, N59G
VL: B1 VL
notes: Fab with FLAG and 6xHis tags
B3: MOR04297 Fab (Fab, V domains shown)
VH: B1 VH
VL: B1 VL with V85T, G93W, S94V, M96H
notes: Fab with FLAG and 6xHis tags
B4: MOR04342 Fab (Fab, V domains shown)
VH: B1 VH with G50A, I52S, I54W, F55D, T57V, A58T, N59G
VL: B1 VL with V85T, G93W, S94V, M96H
notes: X-cloned Fab (VH of MOR04283 x VL of MOR04297) with FLAG and 6xHis tags
B5: MOR04251 Fab (Fab, V domains shown)
VH: QVQLVESGGGLVQPGGSLRLSCAASGFTFSSHWMSWVRQAPGKGLEWVSNIWRGPYIYYADSVKGRFTISRDNSKNTLYLQMNSLRAEDTAVYYCARFQGYGGGFDYWGQGTLVTVSS
VL: DIELTQPPSVSVAPGQTARISCSGDNLPGKYVHWYQQKPGQAPVLVIYYDSNRPSGIPERFSGSNSGNTATLTISGTQAEDEADYYCQSRTQTTIVFGGGTKLTVLG
B6: MOR03684 Fab (Fab, V domains shown)
VH: QVQLVESGGGLVQPGGSLRLSCAASGFTFSSHWMSWVRQAPGKGLEWVSNGIFSDGSATYYADSVKGRFTISRDNSKNTLYLQMNSLRAEDTAVYYCARFQGYGGGFDYWGQGTLVTVSS
VL: B5 VL
notes: carries two C-terminal tags (FLAG and 6xHis); also called antibody no

Assays:
human IL-13 = target: T1, human IL-13 (human, UniProt P35225 35-146); assay: SPR (Biacore 3000), Fab captured on anti-F(ab)2, cytokine as analyte
T1 construct: Bought recombinant protein
Procedure: (§1) This was performed in a capture set-up by surface plasmon resonance (Biacore 3000, Uppsala, Sweden).
(§2) CM5 chips (Biacore, Sweden) were coated with 5000-6000 RU anti-F(ab)₂ (Dianova, Affinipure F(ab)₂ Fragment Goat Anti-Human IgG, F(ab)₂ Fragment specific); 80 μg/ml 10 mM acetate buffer, pH4 on all 4 flow cells, using standard EDC-NHS amine coupling chemistry. […] After capturing of the specific Fab, buffer was injected, to determine the dissociation of anti-Fab/Fab interaction. In a following cycle, the analyte growth factor was injected (20 μl, flow rate 20 μl/min) at a concentration range between 15 and 2000 nM for the determination of the specific signal. Afterwards the achieved buffer sensogram was manually subtracted from the specific one. After each cycle, the flow cells were regenerated with 100 mM HCl (5 μl).

human IL-3 = target: T2, human IL-3 (human, UniProt P08700 20-152); assay: as above
T2 construct: Bought recombinant protein
T2 sequence (looked up): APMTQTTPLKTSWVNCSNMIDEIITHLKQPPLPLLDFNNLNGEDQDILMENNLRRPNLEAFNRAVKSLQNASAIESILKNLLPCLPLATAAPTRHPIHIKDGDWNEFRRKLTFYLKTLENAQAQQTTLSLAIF
Procedure: as §1, §2

mouse GM-CSF = target: T3, mouse GM-CSF (mouse, UniProt P01587 18-141); assay: as above
T3 construct: Bought recombinant protein
T3 sequence (looked up): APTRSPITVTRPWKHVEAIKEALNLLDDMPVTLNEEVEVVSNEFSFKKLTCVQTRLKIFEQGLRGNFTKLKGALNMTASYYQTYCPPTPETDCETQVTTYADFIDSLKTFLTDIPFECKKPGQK
Procedure: as §1, §2

human IL-5 = target: T4, human IL-5 (human, UniProt P05113 20-134); assay: as above
T4 construct: Bought recombinant protein
T4 sequence (looked up): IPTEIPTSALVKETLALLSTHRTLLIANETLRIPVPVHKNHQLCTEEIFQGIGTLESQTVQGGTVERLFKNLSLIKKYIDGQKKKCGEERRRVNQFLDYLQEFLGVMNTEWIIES
Procedure: as §1, §2

human IL-4 = target: T5, human IL-4 (human, UniProt P05112 25-153); assay: as above
T5 construct: Bought recombinant protein
T5 sequence (looked up): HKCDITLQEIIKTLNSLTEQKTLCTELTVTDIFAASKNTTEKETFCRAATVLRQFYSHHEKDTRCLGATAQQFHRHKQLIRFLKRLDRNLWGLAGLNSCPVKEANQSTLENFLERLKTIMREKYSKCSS
Procedure: as §1, §2

rat GM-CSF = target: T6, rat GM-CSF (rat, UniProt P48750 18-144); assay: as above
T6 construct: Bought recombinant protein; also called rat-GM-CSF (Peprotech); rat recombinant GM-CSF
T6 sequence (looked up): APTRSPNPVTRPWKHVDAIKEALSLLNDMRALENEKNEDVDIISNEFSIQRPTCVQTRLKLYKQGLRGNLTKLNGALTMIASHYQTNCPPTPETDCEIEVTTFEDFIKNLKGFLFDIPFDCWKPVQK
Procedure: as §1, §2

human M-CSF = target: T7, human M-CSF (human, UniProt P09603 33-190, limits assumed); assay: as above
T7 construct: Bought recombinant protein
T7 sequence (looked up): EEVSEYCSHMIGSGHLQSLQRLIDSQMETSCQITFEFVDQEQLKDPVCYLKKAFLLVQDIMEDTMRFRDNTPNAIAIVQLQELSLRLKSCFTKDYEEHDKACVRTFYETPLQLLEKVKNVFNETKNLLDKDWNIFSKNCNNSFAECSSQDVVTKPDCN
Procedure: as §1, §2

human GM-CSF [1] = target: T8, human GM-CSF (human, UniProt P04141 18-144); assay: cell-based or functional assay
human GM-CSF [2] = target: T8, human GM-CSF; assay: cell-based or functional assay; remark: listed apart in the source
human GM-CSF [3] = target: T8, human GM-CSF; assay: solution equilibrium titration (SET, ECL/BioVeris), Fab with human GM-CSF (Leucomax) in solution
human GM-CSF [4] = target: T8, human GM-CSF; assay: FACS receptor inhibition assay: inhibition of binding of 0.5 µg/ml biotinylated GM-CSF to GM-CSF receptor alpha on CHO-GMRa#11 cells
Procedure: (§3) All stainings were performed in round bottom 96-well culture plates (Nalge Nunc) with 1-5×10⁵ cells per well. […] Cells were then washed once with 150 μl FACS buffer/well and taken up in 100 μl phycoerythrin-labeled streptavidin (BD Biosciences Pharmingen) which has been diluted 1:400 in FACS buffer. […] IC₅₀ values were determined from the dose response curves obtained using GraphPad Prism v3.03 software applying a non-linear regression curve fit.
(§4) IC₅₀ values were determined from the dose response curves obtained using GraphPad Prism v3.03 software applying a non-linear regression curve fit.

human GM-CSF [5] = target: T8, human GM-CSF; assay: SPR (Biacore), Fab over immobilized recombinant human GM-CSF (Peprotech), F1 chip; affinity estimated from off-rates
Procedure: A respective amount of HSA was immobilized on the reference flow cell. […] Fab was applied in concentration series of 6.3-200 nM at a flow rate of 20 μl/min.

human GM-CSF [6] = target: T8, human GM-CSF; assay: cell-based or functional assay; remark: listed apart in the source
human GM-CSF [7] = target: T8, human GM-CSF; assay: FACS receptor inhibition assay: antibody pre-incubated with 0.5 µg/ml biotinylated GM-CSF, binding to GM-CSF receptor alpha on CHO-GMRa#11 cells
Procedure: as §3, §4

T8 sequence (P04141 18-144): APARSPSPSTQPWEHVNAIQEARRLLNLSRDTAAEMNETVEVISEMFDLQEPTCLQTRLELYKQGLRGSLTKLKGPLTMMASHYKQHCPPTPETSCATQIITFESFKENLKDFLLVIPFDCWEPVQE
T1 sequence (P35225 35-146 limits assumed): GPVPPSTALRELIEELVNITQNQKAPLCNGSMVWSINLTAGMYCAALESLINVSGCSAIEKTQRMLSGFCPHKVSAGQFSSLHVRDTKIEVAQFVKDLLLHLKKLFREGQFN

Row | Binder | binding result (human IL-13) | binding result (human IL-3) | binding result (mouse GM-CSF) | binding result (human IL-5) | binding result (human IL-4) | binding result (rat GM-CSF) | binding result (human M-CSF) | IC50 (pM) in TF-1 proliferation assay, human GM-CSF (human GM-CSF [1]) | inhibition of TF1 cell proliferation at 2 µM Fab, human GM-CSF (Leucomax) 0.25 ng/ml (human GM-CSF [2]) | Kd (human GM-CSF [3]) | % inhibition at 5 µg/ml antibody (human GM-CSF [4]) | Kd (human GM-CSF [5]) | IC50 (pM) in TF-1 proliferation assay, human GM-CSF 0.25 ng/ml (human GM-CSF [6]) | IC50 x-fold improved compared to BVD2-21C11, TF-1 proliferation assay (human GM-CSF [6]) | IC50 x-fold improved compared to Mab215, TF-1 proliferation assay (human GM-CSF [6]) | IC50 (human GM-CSF [7])
1 | B1 | no binding (tested: analyte 15 to 2000 nM) | no binding (tested: analyte 15 to 2000 nM) | no binding (tested: analyte 15 to 2000 nM) | no binding (tested: analyte 15 to 2000 nM) | no binding (tested: analyte 15 to 2000 nM) | no binding (tested: analyte 15 to 2000 nM) | no binding (tested: analyte 15 to 2000 nM) | > 200000 pM | > 50% | 11.4 nM | – | – | – | – | – | –
2 | B2 | – | – | – | – | – | – | – | 17300 pM | – | 0.113 nM | – | – | – | – | – | –
3 | B3 | – | – | – | – | – | – | – | 14000 pM | – | 0.0492 nM | – | – | – | – | – | –
4 | B4 | – | – | – | – | – | – | – | 80 pM | – | 0.0049 nM | – | – | – | – | – | –
5 | B5 | – | – | – | – | – | – | – | – | – | 0.0074 nM | ~100% | 0.07 nM | 463 pM | 14.2 fold | 9.3 fold | 53 nM
6 | B6 | no binding (tested: analyte 15 to 2000 nM) | no binding (tested: analyte 15 to 2000 nM) | no binding (tested: analyte 15 to 2000 nM) | no binding (tested: analyte 15 to 2000 nM) | no binding (tested: analyte 15 to 2000 nM) | no binding (tested: analyte 15 to 2000 nM) | no binding (tested: analyte 15 to 2000 nM) | – | > 50% | 16 nM | ~25% | 6.42 nM | > 200000 pM | – | – | > 400 nM
